# Experiment: soluble on expression in E. coli; label from the status in PepcDB or PDB records
row,Sequence,soluble on expression in E. coli
1,MNILVTGAKGFVGRNLCAQLNNIKNGKARCYGDLKIEEVFEYDIDSTSEQLDAWCQKADFVFNLAGVNRPKENVEFMKGNFGFASTLLDTLKKHHNTCPVMLSSSAQASLTGRFGNSEYGRSKKAGEDLFLQYGKDTGAKVLVYRFPNLYGKWCRPNYNSAVATFCNNIANDLPIQVSDSSVVLELLYIDDLVDEMIHALKGEEHHCEFEGLDVHPLVDGRYCYCPVTHKVTLGEIVDLLHQFAEMPKTLMIPEIPSDSFAKRLYSTYLSYLPKEKAIFDLKMNVDQRGSFTELVHTLNCGQVSINISKPGITKGEHWHNTKWEQFIVVSGHGLIQLRKEGTDEVLNYEVSGDKIQSVIMLPGYAHNIINLSDTEDLVTVMYCNEIFNPDKPDTYFDKVKK,not soluble
2,MNINLETAEQHAVQAYSDKKIQINSIIYESSLIVSKKEIITDFVIKDIQDINNSYIDLLLRSKPELIIIGHLQTGKTLPATLISQLSQKRIGIECMSIGAACRTYNVLLSEHRAVVAGFIFLEHHHHHH,not soluble
3,MNITPLTSAAGKGSSAQGTDKISIPNSTRMINAASIKWLNKVRSAISDHIRTSIEKGKLFELASLGSNMFGVPALSARPSTLQPVLAFEADPNHDLNLVRVYMQDSAGKLTPWDPTPNAVTTTSNPSEPDAQSDTASSSLPRRPPAGSVLSLLGIALDHAQRHSPRADRSAKGRPGREERNGARFNAKQTKPTEAEAYGDHQTPNPDLHRQKETAQRVAESINSMREQQNGMQRAEGLLRAKEALQAREAARKQLLDVLEAIQAGREDSTDKKISATEKNATGINYQ,not soluble
4,MNKELTFNDLPMVVAQLRDEVVGMKQMIVSLQSQNKPHKANTHIPMSVEEASAYLKMPMATLYMKLGNGSIPATKPGKRYCLYQDELDKWLETNRKNPVPLTAEEENAAILAGNKRKPKPLNW,not soluble
5,MNKLITVIRDFSYSVYNWCYETVIGENTRKYKMTWKVPKESLKIIVNKNADARMQRELENRTAKDEANALTSRRRVFGSYALIGTQRAEFIQFRQIKHIDITNASLDFLYNLKQLKHDNLANFYGIQLNDDLNTMTILHALVERGTLEEFCLDRDFGMDETFKSAFMRDILKGLQYLHLSPVAYHGHLHAATCLIDINWVLKIALYGVTNFVCDNFDAENITMPDRSDYTISYAQYVCFPPEHIREYDATGKLPTRFVRGSKQGDIYCVGMIFYMMIEREDPYRLIHSVERPGSGLMMEILDHNLMPFISNNETQEDTLLDKCKECWNRDPEKRPTIENLRNAIAICYADSKGNLIDQMIRMNEKYADELETLVAARSADLALAQMQTMRLLNEMLPASIAKDLKNGVIAPARSYASATVMFVQICDFIVILKRRPPKEVIGFLNDIFDQFDTVIKRHDVETTGETYMVASGVPNENEGRHVFEVAEMSLEIRAISLSYTLENDKNYKLRVRIGFHAGPIAAGVIGIKNPRYCLFGDTVNFASRMQSNCPPLQIQTSEITARMLLATHEYKLVKRGIVHVKGKGEVNCYWLNEHIHKDEEIEESGTISHPLES,not soluble
6,MNKLQSYFIASVLYVMTPHAFAQGTVTIYLPGEQQTLSVGPVENVVQLVTQPQLRDRLWWPGALLTDSAAKAKALKDYQHVMAQLASWEAEADDDVAATIKSVRQQLLNLNITGRLPVKLDPDFVRVDENSNPPLVGDYTLYTVQRPVTITLLGAVSGAGQLPWQAGRSVTDYLQDHPRLAGADKNNVMVITPEGETVVAPVALWNKRHVEPPPGSQLWLGFSAHVLPEKYADLNDQIVSVLTQRVPD,not soluble
7,MNKSHLGTADNPQEVVTAHDIGRLVDVVNVGKGFLRYVGPIHGKDGMFCGIELLEPNGKHDGTFQGVSYFIATPYHGIFAPIFRVTLDAEELPKPPPPNPSNRLSRSALPALQLRNPLTQERKPEEDVMSTSVYVSSSTKPIAIPTKQCRPPETDPMQMSMFSDMMDGSMFSNGSWSDIADSMITSNCTFTVRKGLPIDDDGDLMSVPMVQSVFNIDREALRREEQLQSSIVLGESRIGVEHLPIIEDENELETPLVETRTMPLPNDLNANFSNKNSTTTFVEPETPKVEIRENGNLDNSIETPPQQSPSGSSMVSHESDSSSKKDDTKSDKSPTKKSQKMEEKPVVKKKEEPAAPPPPPKFPVKQKAPSKHQLMMEQLKASIEAEKTKPKKEIKSRVSLLPPPAPKAPQKENKEGGEMTETPRRTITKTPLKTVNAKAKTSPTPPVERQKKERKPLYVAPPAKERVEKEKKIPSKPVVSPPTTAEKKPVVSSIPSTSSASKGPFPTSSFAGGKLQGPRKTSSSSTTTSAKKQKNPPIDEKEKLSRLQHSTHAFEATLIVMNRINEDNERKLGNISEQYEKKVSELGDLKKMLDEARKKFEEDVEQMKNSNQQVIRNHANAVESLQKTHETQIAEKNKEFERNFEEERARREAEVCAMNNRHQKVVACLDEKISEAEKQCEQLNVDKKVLQAALANDCDHRNQMLTKEISSLQTALEMKSAEMKELRQKNQNLSLQVDEIPLKELEISKWKHKSNEYKQMLDQKINGEKILVQQIEDLRRKQIHDEEEKEAMKRSFDLMQFKYENGDDPNVTSVMSAPMESRFSTPTKVQFRSRSSASGSRPISMATSNGGDQRLSTSSHHDDSMNRSTISMYTSHIRLPENHADDVIYAPDEIISSRSGSISQRLAISIENDGEPTIKSESSRIGNTSDSGIGLVM,not soluble
8,MNKTWWKEAVAYQIYPRSFMDSNGDGIGDLQGIIAKLDYLKDLGIDVIWICPMYKSPNDDNGYDISDYQDIMDEFGTMEDFDALLDEVHKRDMKLIIDLVINHTSDEHPWFIESRSSKDNPKRDWYIWHDGKDGAEPNNWESIFNGSAWEYDEVTGQYYLHLFSRKQPDLNWENKEVREVLYDTVNWWLDKGIDGFRVDAISHIKKEDGFKDMPNPKGLKYVPSFDKHMNVDGIQPLLEELKENTFSKYDIMTVGEANGVKIEDAELWVGEEQGKFNMVFQFEHLSLWDAEKKKDLDVVGLKKVLTKWQKGLENKGWNALYIENHDKPRIVSTWGDDKQYWRESATALGAMYFFMHGTPFIYQGQEIGMTNVQFPNIEDYDDVAIKNLYREKIAEGVSHQDMMEIIWASCRDNSRTPMHWDDEINAGFTTGTPWFGMNQNYKEINVAKQKNEENSIFNFYKKMIALKKEHDVLNYGTYDLLLEDDPQIYAYTRTLNDEKIVVISNISKEEAVYNEDLFALERKRLLLNNYEVAEHEQLTTITLKPYETRVYRIS,not soluble
9,MNLMLCCTPLQVLIARKIIELHPNEQFFGVMFGGVWDKKRTLYASKLAEVCSDSMNIDTGKDLKGFDFLKLMRQLKNKITHKGFDKVFLANLNSLWLQTYLSHVSFKELYTFDDGSDNIFPHPNLLREPGTFKYKLIKAFIGDKYSVNKLFKKIKKHYTVYPNYKNIVSNIEPISLWDNQIDCEIDGEVSFFIGQPLLNTKEENISLIKKLKDQIPFDYYFPHPAEDYRVDGVNYVESELIFEDYVFKHLSNKIIIYTFFSSVAFNLLSHPNVEIRFIRTSIPRWQFCYDSFPDLGLTIYKEILEHHHHHH,soluble
10,MNLRGILPFAHDTLRKVVRSGDYVVDATCGNGHDTLLLAELVGINGHVLGFDIQQLAIDATNTRLENAGVSSQVELVCASHARIPEYTSKPVRAAIFNLGYLPGGDKEITTTADSTLESIGHLMELLEVGGVIILVIYHGHPAGKQEKDAVMTFCEAIPQQDFHVLSYNFINQKNDAPFVIIIEKRKPRQSLEHHHHHH,soluble
11,MNLRKPSAWTALALSISTGPAAAGTVTSATLAASTLSPDCLEYKVVGICYWLLCTPFGCKVKTSTKVRHYVPDAVVSSYSNTGENPWVEVSSLSSPTSFAQDGGDGTTSHNNEDNLAKFKNTDVIGHPGGATFSKFASASGYACQGAATPYMPYLLSTLDTIAWRYGVPESAYPEALIPGQREVGGLTSGDMWGSLYPRSGFIHQADDYKAAAVIAQRAGDVVTRRGQIHIYQPLLAKPQSGYWPAGELIETDASTGKWQELTPTLSQSCAVFPNSQPRVQATDGGYAWALWRPYSCCKRQGQTFLGSTDFQLEHHHHHH,not soluble
12,MNLTVSHLDKLRLPLLHKIYKENYPSGKPKGKEEIIVIEGDKKILGAMRIKTYEECHFLTGMMIIKERRGESLGSQLLFKLNEFLSLEHCYCFCEPQLSEFYLKNDFIHIDKKNIPHVLKSKHDRYTNTGKELDILLYKKTNN,not soluble
13,MNLVKLLANNWQPIAIIALVGTGLAVSHHQGYKSAFAKQQAVIDKMERDKAQALLLSAQNYARELELARAEAKKYEVKAHAVGMALAKKQAEVSRLKTERDLCKIPFPPDSRNPNTGFRLFSPQIPPNFTQIPP,not soluble
14,MNMNQTTSPALSQVETAIRVPAGNFAKYNYYSVFDIVRQTRKQFINANMSWPGSRGGKTWDLAMGQAQYIRCMFRENQLTRRVRGTLQQTPDNGTNLSSSAVGGIQGQAERRPDLATLMVVNDAINQQIPTLLPYHFPHDQVELSLLNTDVSLEDIISESSIDWPWFLSNSLTGDNSNYAMELASRLSPEQQTLPTEPDNSTATDLTSFYQTNLGLKTADYTPFEALNTFARQLAITVPPGGTVDCGYSACQPAVLEHHHHHH,not soluble
15,MNMTKNTMGTKLPRKLEQKMAVVGEQIKLARLRRNLSVAQVAERATCSPLTVSRIEKGAPTVAIGIYLRVLYALQLDDDILWLAKEDKLGKTLQDLSLKTRERASKKE,not soluble
16,MNNKEKGDFGEKVAVNYLLSKGAKILEKNYRLKIGEIDIIAKMEDEIIFVEVKSRSNIKFGYPCESVSFKKRKKIIGVASYYIIKNNLNNTPIRFDVIEVYLLEKRINHIMNAF,not soluble
17,MNNQFIQRVIFDWNRIDNDSYLKGIEAFKGIEKLDFNKPITFFVGENGSGKSTLLEALAVAHGFNPEGGTKNYVFSTHDTHSELCDAIRIAKGYRKEKWGYFLRAESFYNVATQEEEYADITHPSAKYHEKSHGESFLALAQNNMNPNGLYLFDEPEAALSPQRQLTLLMQIYRCAKEGAQFIIVTHSPILLGIPDADIYCFDNGCIHLCEYEDTESYQVTEMFINNRQMLLDRLLTD,not soluble
18,MNNSINHKFHHISRAEYQELLAVSRGDAVADYIIDNVSILDLINGGEISGPIVIKGRYIAGVGAEYTDAPALQRIDARGATAVPGFIDAHLHIESSMMTPVTFETATLPRGLTTVICDPHEIVNVMGEAGFAWFARCAEQARQNQYLQVSSCVPALEGCDVNGASFTLEQMLAWRDHPQVTGLAEMMDYPGVISGQNALLDKLDAFRHLTLDGHCPGLGGKELNAYITAGIENCHESYQLEEGRRKLQLGMSLMIREGSAARNLNALAPLINEFNSPQCMLCTDDRNPWEIAHEGHIDALIRRLIEQHNVPLHVAYRVASWSTARHFGLNHLGLLAPGKQADIVLLSDARKVTVQQVLVKGEPIDAQTLQAEESARLAQSAPPYGNTIARQPVSASDFALQFTPGKRYRVIDVIHNELITHSHSSVYSENGFDRDDVSFIAVLERYGQRLAPACGLLGGFGLNEGALAATVSHDSHNIVVIGRSAEEMALAVNQVIQDGGGLCVVRNGQVQSHLPLPIAGLMSTDTAQSLAEQIDALKAAARECGPLPDEPFIQMAFLSLPVIPALKLTSQGLFDGEKFAFTTLEVTELEHHHHHH,soluble
19,MNPFHELEPGPEVPEVVYALIEIPKGSRNKYELDKKTGLLKLDRVLYSPFFYPVDYGIIPQTWYDDGDPFDIMVIMREPVYPLTIIEARPIGIMKMEDSGDKDWKVLAVPVEDPYFNDWKDISDVPKAFLDEIAHFFQRYKELQGKTTKIEGWGNAEEAKREILRAIEMYKEKFGKEE,soluble
20,MNPIAVTLLTGFLGAGKTTLLRHILNEQHGYKIAVIENEFGEVSVDDQLIGDRATQIKTLTNGCICCSRSNELEDALLDLLDNLDKGNIQFDRLVIECTGMADPGPIIQTFFSHEVLCQRYLLDGVIALVDAVHADEQMNQFTIAQSQVGYADRILLTKTDVAGEAEKLHERLARINARAPVYTVTHGDIDLGLLFNTNGFMLEENVVSTKPRFHFIADKQNDISSIVVELDYPVDISEVSRVMENLLLESADKLLRYKGMLWIDGEPNRLLFQGVQRLYSADWDRPWGDEKPHSTMVFIGIQLPEEEIRAAFAGLRK,soluble

# — the DeepSol protein solubility set
